According to patent publication US20230287458, “RECOMBINANT ADENO-ASSOCIATED VIRAL […] FOR […] GENE […]” (Abeona Therapeutics Inc., published 2023):

Biological target: Cre recombinase (UniProt P06956 P06956:1-343)
Assay: cell_activity; Lox66 partner site of Lox71 in same experiment; full-length ABCA4 mRNA relative to the pair without Cre
Settings: tags: NLS; expressed from the 5' ABCA4 vector after T2A self-cleavage; chain copies: 4
From the text: We quantified the expression levels of full-length ABCA4 mRNA in cells transfected with various plasmids.

Cre recombinase, sequence (P06956 whole entry, one chain of several): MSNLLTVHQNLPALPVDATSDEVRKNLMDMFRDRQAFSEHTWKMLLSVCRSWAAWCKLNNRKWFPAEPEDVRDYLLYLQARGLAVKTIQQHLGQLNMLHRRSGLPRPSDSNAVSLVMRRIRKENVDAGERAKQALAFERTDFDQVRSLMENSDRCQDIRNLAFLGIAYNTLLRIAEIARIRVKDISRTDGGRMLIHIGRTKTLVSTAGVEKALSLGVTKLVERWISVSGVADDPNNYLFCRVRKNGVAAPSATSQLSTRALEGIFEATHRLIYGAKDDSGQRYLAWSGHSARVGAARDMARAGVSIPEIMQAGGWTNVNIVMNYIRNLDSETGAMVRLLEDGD

B1: Lox66 (dsDNA)
DNA 1: ATAACTTCGTATAATGTATGCTATACGAACGGTA
DNA 2: TACCGTTCGTATAGCATACATTATACGAAGTTAT
activity: ~55 fold
